{
  "source": "patent US11492376B2",
  "about": "“Toxoplasma gondii GRA8-derived recombinant peptides and composition for preventing or treating cancer comprising the same” (Industry—University Cooperation Foundation Hanyang …, priority 2019, dated 2022)",
  "molecules": {"B1": {"name": "(GLAGLAGLLGLEGLLGLPLGLLEGLWLGLELEGN)2-GG-ATATTTTTTR-GG-YRFTVQTTQN (protein)", "chain": "GLAGLAGLLGLEGLLGLPLGLLEGLWLGLELEGNGLAGLAGLLGLEGLLGLPLGLLEGLWLGLELEGNGGATATTTTTTRGGYRFTVQTTQN", "modifications": "His tag; rATRAM-G8-M/AS"}},
  "key": {"[1]": {"assay": "Serum cytokine response in tumor-bearing mice", "procedure": "(§1) Immunoblotting was performed with anti-PKCα, anti-ATP5A1, anti-SIRT3 or anti-actin. […] (B) The schematic diagram of a xenograft model treated with rVector (upper). HCT116-expressing ATP5A1 WT and mutant cells were subcutaneously injected into the flank of nude mice. […] Each group included 10 mice. […] (C) Humoral immune responses in BALB/C mice. The mice were immunized via each route (intravenous injection or intraperitoneal injection) every third day, and subjected to blood collection on day 40. […] The values are expressed as mean±standard deviation for absorbance (OD) at 450 nm. Each group included five mice. (D) Cytokine response for rATRAM-GRA8-M/AS in tumor-bearing mice. As described in the method section, HCT116 cells were subcutaneously injected into the flank of a BALB/c mouse. A serum cytokine level was measured on day 30 after administration. Each group included 10 mice.\n(§2) Since immunogenicity is closely related with safety and efficacy, it is one of the critical factors for development of therapeutic proteins. Therefore, by monitoring the production of antibodies against rATRAM-GRA8-M/AS in immunized mice, the immunogenicity of rATRAM-GRA8-M/AS was investigated. After three consecutive injections of rATRAM-GRA8-M/AS, a level of IgG antibody was analyzed using enzyme-linked immunosorbent assay (ELISA)."}, "[2]": {"assay": "Pharmacokinetics and drug distribution in HCT116 tumor-bearing mice (His immunoblotting of organs)", "assay_type": "in vivo, BALB/c mouse", "procedure": "The […] were administered into the mouse by intraperitoneal injection once (left) or twice (right), and then the mouse was sacrificed on day 5. His expression was evaluated by immunoblotting (IB) in various organs from a mouse. The whole cell lysate was used for IB with anti-actin. Data represents four independent experiments with similar results. (B) The schematic diagram of an rGRA8 WT (upper)-treated xenograft model. […] The length and width of the tumors were measured using calipers, and a tumor volume was calculated every third day for 30 days. Individual tumor volumes from each mouse in each group were averaged and graphed over days after inoculation. Statistical significance was determined by two-way analysis of variance (ANOVA) with a Tukey's post-test; * P<0.05, *** P<0.001, compared with rVector. Each group included 10 mice. Data represents two independent experiments with similar results."}, "[3]": {"assay": "Immunogenicity: specific IgG by ELISA in immunized mice", "settings": "immunized BALB/C mice, OD 450 nm", "procedure": "as §1, §2"}, "HCT116 cells": {"tested_on": "HCT116 cells", "assay": "MitoTracker flow cytometry of mitochondrial mass in HCT116 cells", "assay_type": "cell-based, human", "settings": "1 day, via SIRT3 and PKCα", "procedure": "FIGS. 4A, 4B, 4C, 4D and 4E show HCT116 cell death by rATRAM-GRA8-M/AS-induced mitochondrial activation [(A and B) HCT116 cells were incubated with WT rGRA8 or rATRAM-GRA8-M/AS and its mutants for indicated times, and then cell viability was measured with an MTT assay. […] The cells were stimulated with rATRAM-GRA8-M/AS for 1 day and subjected to enzymatic activity of OXPHOS V, and (C) MitoTracker fluorescence signals were assessed by flow cytometry. (D) A bar graph indicates a mitochondrial mass (MFI), and (E) the mtDNA content of BMDM was measured by quantitative real-time PCR. The mtDNA content was normalized by nuclear DNA. Significant differences were determined by comparison with control treatment (** P<0.01; *** P<0.001). Data represents five independent experiments with similar results]."}, "BMDM": {"tested_on": "BMDM", "assay": "MTT assay of cell viability, bone marrow-derived macrophages (BMDM)", "assay_type": "cell-based, mouse", "settings": "20 μg/ml", "procedure": "FIGS. 2A, 2B, 2C, 2D and 2E show the design and expression of an ATRAM-conjugated multifunctional GRA8 peptide (rATRAM-G8-M/AS)-based protein [(A) Subcellular fractionation of 293T cells was performed by expression of GST-GRA8 WT or incubation of WT rGRA8 with (1 μg/ml) BMDM and treatment with several Tat-GRA8 peptides for 6 hours (10 μM). Mitochondrial and cytosolic fractions were fractionated and analyzed for expression of GST by IB. The purity of the fractions was confirmed by blotting for VDAC (mitochondrial protein) and actin (cytosolic protein). (B) A mammalian GST-GRA8 construct was transfected into 293T cells for 12 hours with V5-ATP5A1 or Flag-SIRT3, and treated with several Tat-GRA8 peptides (10 μM) for 6 hours. The 293T cells were used for GST pulldown, followed by IB with αV5 or αFlag. WCL was used for IB with αGST, αV5, αFlag or αActin. […] (D) 6×His-rATRAM-GRA8-M/AS purified with bacteria and its mutants were analyzed by Coomassie blue staining (left) or αHis immunoblotting (IB; right). (E) BMDM was incubated with rATRAM-GRA8-M/AS and its mutant (20 μg/ml) for indicated times, and cell viability was then measured by an MMT assay. […]\nAs described in Non-Patent Document 1, the cell viability for a non-treated group was measured by an MTT assay. […] Using a UV/VIS spectrophotometer, each well of a plate was measured at 540 nm to measure relative cell viability."}, "[4]": {"settings": "BALB/c mice, versus negative control"}, "[5]": {"settings": "tumor-bearing mice, intraperitoneal injection"}},
  "data": [
    {"molecule": "B1", "values": [
      {"measurement": "serum IL-1β level", "setting": "[1]; [4]", "result": "almost similar to that of the negative control"},
      {"measurement": "serum IL-6 level", "setting": "[1]; [4]", "result": "almost similar to that of the negative control"},
      {"measurement": "serum TNF-α level", "setting": "[1]; [4]", "result": "almost similar to that of the negative control"},
      {"measurement": "production of inflammatory cytokines", "setting": "[1]; tumor-bearing mice, serum, day 30", "result": "negligible"},
      {"measurement": "cancer cell targetability", "setting": "[2]; immunoblotting, FIG. 5", "result": "excellent cancer cell targetability"},
      {"measurement": "disappearance from tumor", "setting": "[2]; [5]", "result": "gradually disappeared by day 3"},
      {"measurement": "time the tumor location was maintained", "setting": "[2]; [5]", "result": "up to 2 days"},
      {"measurement": "location of protein among organs", "setting": "[2]; tumor-bearing mice, intraperitoneal injection, His immunoblotting", "result": "located in tumor cells"},
      {"measurement": "level of specific IgG antibody", "setting": "[3]", "result": "negligible"},
      {"measurement": "mitochondrial mass", "setting": "HCT116 cells", "result": "enhanced"},
      {"measurement": "cytotoxicity in macrophages compared with vector control", "setting": "BMDM", "result": "No significant cytotoxic differences"}
    ]}
  ]
}
